The chains are these.
T1: human glucose-dependent insulinotropic polypeptide receptor (human, UniProt P48546 22-466)
T1 sequence (looked up): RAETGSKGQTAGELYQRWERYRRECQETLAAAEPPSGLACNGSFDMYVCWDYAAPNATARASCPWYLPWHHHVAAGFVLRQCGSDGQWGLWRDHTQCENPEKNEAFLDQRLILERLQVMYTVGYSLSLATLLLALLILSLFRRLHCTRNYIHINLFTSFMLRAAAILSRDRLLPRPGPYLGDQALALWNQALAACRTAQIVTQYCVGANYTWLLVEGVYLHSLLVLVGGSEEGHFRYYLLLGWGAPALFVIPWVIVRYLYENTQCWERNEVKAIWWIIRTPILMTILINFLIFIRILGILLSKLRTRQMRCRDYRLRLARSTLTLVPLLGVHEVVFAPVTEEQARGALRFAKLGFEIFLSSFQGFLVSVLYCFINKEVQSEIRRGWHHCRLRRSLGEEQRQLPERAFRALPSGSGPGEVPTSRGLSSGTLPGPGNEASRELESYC

B1: Compound No. 0143 (peptide)
peptide: H[Aib]HGTFTSDLSI[αMeL]LEK([AEEA-AEEA-γGlu-C20 diacid])KAAQEFVEWLLAGGPSSGAPPPS-NH2
modifications: N-terminus assumed
SMILES: CC[C@H](C)[C@H](NC(=O)[C@H](CO)NC(=O)[C@H](CC(C)C)NC(=O)[C@H](CC(=O)O)NC(=O)[C@H](CO)NC(=O)[C@@H](NC(=O)[C@H](Cc1ccccc1)NC(=O)[C@@H](NC(=O)CNC(=O)[C@H](Cc1c[nH]cn1)NC(=O)C(C)(C)NC(=O)[C@@H](N)Cc1c[nH]cn1)[C@@H](C)O)[C@@H](C)O)C(=O)N[C@@](C)(CC(C)C)C(=O)N[C@@H](CC(C)C)C(=O)N[C@@H](CCC(=O)O)C(=O)N[C@@H](CCCCNC(=O)COCCOCCNC(=O)COCCOCCNC(=O)CC[C@H](NC(=O)CCCCCCCCCCCCCCCCCCC(=O)O)C(=O)O)C(=O)N[C@@H](CCCCN)C(=O)N[C@@H](C)C(=O)N[C@@H](C)C(=O)N[C@@H](CCC(N)=O)C(=O)N[C@@H](CCC(=O)O)C(=O)N[C@@H](Cc1ccccc1)C(=O)N[C@H](C(=O)N[C@@H](CCC(=O)O)C(=O)N[C@@H](Cc1c[nH]c2ccccc12)C(=O)N[C@@H](CC(C)C)C(=O)N[C@@H](CC(C)C)C(=O)N[C@@H](C)C(=O)NCC(=O)NCC(=O)N1CCC[C@H]1C(=O)N[C@@H](CO)C(=O)N[C@@H](CO)C(=O)NCC(=O)N[C@@H](C)C(=O)N1CCC[C@H]1C(=O)N1CCC[C@H]1C(=O)N1CCC[C@H]1C(=O)N[C@@H](CO)C(N)=O)C(C)C
B2: Compound No. 0142 (peptide)
peptide: H[Aib]HGTFTSDLSI[αMeL]LEK([AEEA-AEEA-γGlu-C20 diacid])KAAQEFVEWLLA[dE]GPSSGAPPPS-NH2
modifications: N-terminus assumed
SMILES: CC[C@H](C)[C@H](NC(=O)[C@H](CO)NC(=O)[C@H](CC(C)C)NC(=O)[C@H](CC(=O)O)NC(=O)[C@H](CO)NC(=O)[C@@H](NC(=O)[C@H](Cc1ccccc1)NC(=O)[C@@H](NC(=O)CNC(=O)[C@H](Cc1c[nH]cn1)NC(=O)C(C)(C)NC(=O)[C@@H](N)Cc1c[nH]cn1)[C@@H](C)O)[C@@H](C)O)C(=O)N[C@@](C)(CC(C)C)C(=O)N[C@@H](CC(C)C)C(=O)N[C@@H](CCC(=O)O)C(=O)N[C@@H](CCCCNC(=O)COCCOCCNC(=O)COCCOCCNC(=O)CC[C@H](NC(=O)CCCCCCCCCCCCCCCCCCC(=O)O)C(=O)O)C(=O)N[C@@H](CCCCN)C(=O)N[C@@H](C)C(=O)N[C@@H](C)C(=O)N[C@@H](CCC(N)=O)C(=O)N[C@@H](CCC(=O)O)C(=O)N[C@@H](Cc1ccccc1)C(=O)N[C@H](C(=O)N[C@@H](CCC(=O)O)C(=O)N[C@@H](Cc1c[nH]c2ccccc12)C(=O)N[C@@H](CC(C)C)C(=O)N[C@@H](CC(C)C)C(=O)N[C@@H](C)C(=O)N[C@H](CCC(=O)O)C(=O)NCC(=O)N1CCC[C@H]1C(=O)N[C@@H](CO)C(=O)N[C@@H](CO)C(=O)NCC(=O)N[C@@H](C)C(=O)N1CCC[C@H]1C(=O)N1CCC[C@H]1C(=O)N1CCC[C@H]1C(=O)N[C@@H](CO)C(N)=O)C(C)C
B3: Compound No. 0139 (peptide)
peptide: H[Aib]HGTFTSDYSI[αMeL]LEK([AEEA-AEEA-γGlu-C20 diacid])KAAQEFVEWLLA[dE]GPSSGAPPPS-NH2
modifications: N-terminus assumed
SMILES: CC[C@H](C)[C@H](NC(=O)[C@H](CO)NC(=O)[C@H](Cc1ccc(O)cc1)NC(=O)[C@H](CC(=O)O)NC(=O)[C@H](CO)NC(=O)[C@@H](NC(=O)[C@H](Cc1ccccc1)NC(=O)[C@@H](NC(=O)CNC(=O)[C@H](Cc1c[nH]cn1)NC(=O)C(C)(C)NC(=O)[C@@H](N)Cc1c[nH]cn1)[C@@H](C)O)[C@@H](C)O)C(=O)N[C@@](C)(CC(C)C)C(=O)N[C@@H](CC(C)C)C(=O)N[C@@H](CCC(=O)O)C(=O)N[C@@H](CCCCNC(=O)COCCOCCNC(=O)COCCOCCNC(=O)CC[C@H](NC(=O)CCCCCCCCCCCCCCCCCCC(=O)O)C(=O)O)C(=O)N[C@@H](CCCCN)C(=O)N[C@@H](C)C(=O)N[C@@H](C)C(=O)N[C@@H](CCC(N)=O)C(=O)N[C@@H](CCC(=O)O)C(=O)N[C@@H](Cc1ccccc1)C(=O)N[C@H](C(=O)N[C@@H](CCC(=O)O)C(=O)N[C@@H](Cc1c[nH]c2ccccc12)C(=O)N[C@@H](CC(C)C)C(=O)N[C@@H](CC(C)C)C(=O)N[C@@H](C)C(=O)N[C@H](CCC(=O)O)C(=O)NCC(=O)N1CCC[C@H]1C(=O)N[C@@H](CO)C(=O)N[C@@H](CO)C(=O)NCC(=O)N[C@@H](C)C(=O)N1CCC[C@H]1C(=O)N1CCC[C@H]1C(=O)N1CCC[C@H]1C(=O)N[C@@H](CO)C(N)=O)C(C)C
B4: Compound No. 0132 (peptide)
peptide: H[Aib]HGTFTSDYS[αMeK]ILEK([AEEA-AEEA-γGlu-C20 diacid])KAA[Iva]EFVEWLIEGGPSSGAPPPS-NH2
modifications: N-terminus assumed
SMILES: CC[C@H](C)[C@H](NC(=O)[C@H](CC(C)C)NC(=O)[C@H](Cc1c[nH]c2ccccc12)NC(=O)[C@H](CCC(=O)O)NC(=O)[C@@H](NC(=O)[C@H](Cc1ccccc1)NC(=O)[C@H](CCC(=O)O)NC(=O)[C@](C)(CC)NC(=O)[C@H](C)NC(=O)[C@H](C)NC(=O)[C@H](CCCCN)NC(=O)[C@H](CCCCNC(=O)COCCOCCNC(=O)COCCOCCNC(=O)CC[C@H](NC(=O)CCCCCCCCCCCCCCCCCCC(=O)O)C(=O)O)NC(=O)[C@H](CCC(=O)O)NC(=O)[C@H](CC(C)C)NC(=O)[C@@H](NC(=O)[C@](C)(CCCCN)NC(=O)[C@H](CO)NC(=O)[C@H](Cc1ccc(O)cc1)NC(=O)[C@H](CC(=O)O)NC(=O)[C@H](CO)NC(=O)[C@@H](NC(=O)[C@H](Cc1ccccc1)NC(=O)[C@@H](NC(=O)CNC(=O)[C@H](Cc1c[nH]cn1)NC(=O)C(C)(C)NC(=O)[C@@H](N)Cc1c[nH]cn1)[C@@H](C)O)[C@@H](C)O)[C@@H](C)CC)C(C)C)C(=O)N[C@@H](CCC(=O)O)C(=O)NCC(=O)NCC(=O)N1CCC[C@H]1C(=O)N[C@@H](CO)C(=O)N[C@@H](CO)C(=O)NCC(=O)N[C@@H](C)C(=O)N1CCC[C@H]1C(=O)N1CCC[C@H]1C(=O)N1CCC[C@H]1C(=O)N[C@@H](CO)C(N)=O
B5: Compound No. 0131 (peptide)
peptide: H[Aib]HGTFTSDYS[αMeK]LLEK([AEEA-AEEA-γGlu-C20 diacid])KAA[Iva]EFVEWLIEGGPSSGAPPPS-NH2
modifications: N-terminus assumed
SMILES: CC[C@H](C)[C@H](NC(=O)[C@H](CC(C)C)NC(=O)[C@H](Cc1c[nH]c2ccccc12)NC(=O)[C@H](CCC(=O)O)NC(=O)[C@@H](NC(=O)[C@H](Cc1ccccc1)NC(=O)[C@H](CCC(=O)O)NC(=O)[C@](C)(CC)NC(=O)[C@H](C)NC(=O)[C@H](C)NC(=O)[C@H](CCCCN)NC(=O)[C@H](CCCCNC(=O)COCCOCCNC(=O)COCCOCCNC(=O)CC[C@H](NC(=O)CCCCCCCCCCCCCCCCCCC(=O)O)C(=O)O)NC(=O)[C@H](CCC(=O)O)NC(=O)[C@H](CC(C)C)NC(=O)[C@H](CC(C)C)NC(=O)[C@](C)(CCCCN)NC(=O)[C@H](CO)NC(=O)[C@H](Cc1ccc(O)cc1)NC(=O)[C@H](CC(=O)O)NC(=O)[C@H](CO)NC(=O)[C@@H](NC(=O)[C@H](Cc1ccccc1)NC(=O)[C@@H](NC(=O)CNC(=O)[C@H](Cc1c[nH]cn1)NC(=O)C(C)(C)NC(=O)[C@@H](N)Cc1c[nH]cn1)[C@@H](C)O)[C@@H](C)O)C(C)C)C(=O)N[C@@H](CCC(=O)O)C(=O)NCC(=O)NCC(=O)N1CCC[C@H]1C(=O)N[C@@H](CO)C(=O)N[C@@H](CO)C(=O)NCC(=O)N[C@@H](C)C(=O)N1CCC[C@H]1C(=O)N1CCC[C@H]1C(=O)N1CCC[C@H]1C(=O)N[C@@H](CO)C(N)=O

Starred links: 1 amine or outer side, 2 acyl side, 3 side chain; linkers in the order of their positions; H or OH if unused. Non-standard residues stand in square brackets, D forms with d. Groups on a side chain read outwards from the residue. No end group written: not given here. *: point of attachment. C20 diacid = O=C(O)CCCCCCCCCCCCCCCCCCC(=O)*; γGlu = O=C(O)[C@H](CCC(=O)[*:2])N[*:1]; αMeL = CC(C)C[C@](C)(N)C(=O)O; αMeK = C[C@](N)(CCCCN)C(=O)O; Iva = CC[C@](C)(N)C(=O)O; AEEA = NCCOCCOCC(=O)O; Aib = CC(C)(N)C(=O)O

For the first assay, the target named is T2, human glucagon receptor (human, UniProt P47871 26-477). In words: cell-based or functional assay.
T2 sequence (P47871 26-477): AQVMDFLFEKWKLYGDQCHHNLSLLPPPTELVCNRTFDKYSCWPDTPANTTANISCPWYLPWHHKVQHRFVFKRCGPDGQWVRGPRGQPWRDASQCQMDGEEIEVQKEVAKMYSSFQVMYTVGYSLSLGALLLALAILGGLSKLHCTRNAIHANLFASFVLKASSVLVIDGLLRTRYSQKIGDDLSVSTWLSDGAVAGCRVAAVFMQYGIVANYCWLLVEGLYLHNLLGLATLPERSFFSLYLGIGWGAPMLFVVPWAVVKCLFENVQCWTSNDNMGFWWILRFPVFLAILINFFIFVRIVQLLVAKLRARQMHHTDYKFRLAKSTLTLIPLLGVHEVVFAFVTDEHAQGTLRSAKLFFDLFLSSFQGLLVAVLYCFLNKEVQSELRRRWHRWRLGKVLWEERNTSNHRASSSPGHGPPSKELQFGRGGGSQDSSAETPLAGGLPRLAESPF
H[Aib]HGTFTSDLSILLEK([AEEA-AEEA-γGlu-C20 diacid])KAAQEFVEWLLA[dE]GPSSGAPPPS-NH2 [Compound No. 0144]: the “Activity against human GCGR (EC50 nM)” value is 0.311 nM.
The same measure, in the same setting: the same measure for B1: 0.423 nM.
As to B2, the “Activity against human GCGR (EC50 nM)” value was 0.49 nM.
Regarding B3, the “Activity against human GCGR (EC50 nM)” value came out at 0.43 nM.

A further assay has as its target T1, human glucose-dependent insulinotropic …. In words: cell-based or functional assay.
For the molecule H[Aib]HGTFTSDLSILLEK([AEEA-AEEA-γGlu-C20 diacid])KAAQEFVEWLLA[dE]GPSSGAPPPS-NH2 [Compound No. 0144], the “Activity against human GIPR (EC50 nM)” value came out at 0.012 nM.
As for B1, the “Activity against human GIPR (EC50 nM)” value turned out to be 0.004 nM.
Still for that read-out and setting: as for B2, the figure is 0.007 nM; as for B3, 0.007 nM.

For another assay, the target named is T3, human glucagon-like peptide-1 receptor (human, UniProt P43220 24-463). Put plainly: cell-based or functional assay.
In the case of H[Aib]HGTFTSDLSILLEK([AEEA-AEEA-γGlu-C20 diacid])KAAQEFVEWLLA[dE]GPSSGAPPPS-NH2 [Compound No. 0144], the “Activity against human GLP-1R (EC50 nM)” value is 0.035 nM.
The same measure, in the same setting: the same measure for B1: 0.09 nM; for B2: 0.058 nM; for B3: 0.043 nM.

In a further assay the target is T2, human glucagon receptor. In words: cell-based or functional assay. The source holds these as a separate data set.
In the case of B4, the “Activity against human GCGR (EC50 nM)” value was 0.03 nM.
Still for that read-out and setting: as for B5, the figure is 0.026 nM.

A further assay deals with T1, human glucose-dependent insulinotropic …. Put plainly: cell-based or functional assay. The source holds these as a separate data set.
On to B4, for which the “Activity against human GIPR (EC50 nM)” value stood at 0.001 nM.
With B5, the “Activity against human GIPR (EC50 nM)” value came out at 0.0007 nM.

In another assay the target is T3, human glucagon-like peptide-1 receptor. Put plainly: cell-based or functional assay. This is another data set of the same source.
As to B4, the “Activity against human GLP-1R (EC50 nM)” value is 0.024 nM.
B5: the “Activity against human GLP-1R (EC50 nM)” value is 0.02 nM.

Source of the values: EP4745153A1, “GLP-1, GIP AND GCG RECEPTOR […] USE THEREOF” (Jiangsu Hengrui Pharmaceuticals Co., Ltd., priority 2023, dated 2025).
